Assay results reported in the nanobody polyreactivity screen of Harvey et al. (2022).

Test: yeast display, Sf9 membrane polyspecificity reagent, FACS + sequencing; frameworks hold sequencing errors
Summary of the method: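 Nanobodies from a synthetic yeast display library (Saccharomyces cerevisiae BJ5465), induced 36–48 hours with galactose, were stained 1 hour at 4 °C with 10% biotinylated, detergent-solubilized Sf9 membrane reagent, enriched on streptavidin microbeads, then FACS-sorted. Anti-HA (expression) and streptavidin (reagent binding) fluorescence set low and high (top ~1%) gates. Polyreactivity labels come from the gate of origin. Genes were colony-PCR amplified, MiSeq 2 × 250 sequenced and filtered by CDR length.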

Sequence | polyreactivity (PSR sort gate)
QVQLVESGGGLVQAGGSLRLRCAASGIFAFYAMGWYRQAPGKERELVAGIDDGGSTDYADSVKGRFTISRDNAKNTVYLQMNSLKPEDTAVYYCAATERLEVWSRPYVWVTLDYRGQGTQVTVSS | low polyreactivity
QVQLVESGGGLVQAGGSLRLRCAASGITFKWYAMGWYRQATGKEREFVAIISTRAGSTYYADSVKGRFTISRDNAKNTVSLQMNSLIPEDSAVYYCNAVRSRGLHRRGDFDYWGQGTQVTVSS | high polyreactivity
QVQLVESGGGLVQAGGSLRLRCAASGITFSWYDMGWYRQAPGKERELVAAISWSGGRTYYADSVKGRFTISRDNAKNTVYLQMNSLKPEDTAVYYCNAVGVGYVGYLYGYLGQGTQVTVSS | high polyreactivity
QVQLVESGGGLVQAGGSLRLRCAASGITLLNYAMGWYRQAPWKERELVAAISWSGGRTYYADSVKGRFTMSRDNAKNTDYLHMNSLNPQDTAVYYCAAARGVNSYGYWGQGTQVTVSS | high polyreactivity
QVQLVESGGGLVQAGGSLRLRCAASGITTRTYAMGWYRQAPGKERELVAAISDSGDRTYYADSVKGRFTISRDKAKNTVYFQMNSVKPEDTAVYYCAVDGPGPRCEFWGQGTKVTVSS | low polyreactivity
QVQLVESGGGLVQAGGSLRLRCAASGLMFYDNMGCYRQAPGKERELVAAISSSGGSTSYADSVKGRFTISRDNAKNTVYLQMNSLKPEDTAVYYCAAKWSLVRDCPKYDYWGQGTQVTVSS | low polyreactivity
QVQLVESGGGLVQAGGSLRLRCAASGLTFAYNTMGWYRQAPGKEREFVASISSSGGNTYYADSVKGRFTISRDNAKNTVYLQMNSLKPEDTAVYYCAAKKKYHYVASYKRFEYWGQGTQVTVSS | low polyreactivity
QVQLVESGGGLVQAGGSLRLRCAASGLTFTYYAMGWYRQAPGKERELVAAISSGGNTNYADSVKGRFTISRDNAKNTVYLQMNSLKPEDTGVYYCAADDYYDHRVIYRSWYDYWGQGTQVTVSS | low polyreactivity
QVQLVESGGGLVQAGGSLRLRCAASGRIFGYYPMGWYRQAPGKERELDADITESGTSTYYADSVKGRFTISRDNAKNTVYLQMNSLKRVDTAVYYCAAGYWWRYALYGYWGQGTQVTVSS | low polyreactivity
QVQLVESGGGLVQAGGSLRLRCAASGRIFPLYAMGWYRQAPGKERELVATISYSGSSTYYADSVKGRFTISRDYAKNSVYLQMNSLKPEDTAVFYFNADAFGPPGVEYYYRGQGTQVTVSS | low polyreactivity
QVQLVESGGGLVQAGGSLRLRCAASGRIFRYYAMGWYRQAPGKARELVARITSSGSTYYADSVKGRFTISRDNAKNTVYLQMNSLKPEDTAVYYCAADWYRGGIVDSWGQGTQVTVSS | high polyreactivity
QVQLVESGGGLVQAGGSLRLRCAASGRIRYYGIGCYRQAPGKERELVAAITWRAGRTYYADSVKGRFTISRDNANITVYLHMNSLKPEDSAVYYCAAAIYSRSFRVDYWGQGTQVSVSS | high polyreactivity
QVQLVESGGGLVQAGGSLRLRCAASGRTFFVYTMGWYRQAPGKERELVAAITSDTSTTYADSVKGRFTISRDNAKNTVYLQMISLKPEDTAVYYCAAEGYVGYYDYDYWGQGTQVTVSS | low polyreactivity
QVQLVESGGGLVQAGGSLRLRCAASGRTFSHYAMGWYRQAAGKESELVATITRNGGITYYADSVKGRFTISRDNAKNTVYLQMNSLKPEDTAVYYCNKRWGGPIQFDYWGQGTQVTVSS | low polyreactivity
QVQLVESGGGLVQAGGSLRLRCAASGRTFWRYAMGWYRQAPGKEREFVAAISSSGGNTYYADSVKGRFTITRDNANNTVYLQTNSLKPEDTAVYYCAAYYITALGIKDYVRYYWGQGTQVTVSS | high polyreactivity
QVQLVESGGGLVQAGGSLRLRCAASGRTFYPYAMGWYRQAPGKERELVAAINWSGTSTYYADSVKGRFTISRDNAKNTVYLQMNSLKPEDTAVYYCAAKQYPVLHYSLTEADMDYWGQGTQVTVSS | low polyreactivity
QVQLVESGGGLVQAGGSLRLRCAASGRTLSSYAMGWYREAPGKERELVAAITRSGGSTYYADSVNGRFTISRDIAKNTVYLQMNSLKPEDTAVYYCAADGYRRYGSWGQGTQVTVSS | high polyreactivity
QVQLVESGGGLVQAGGSLRLRCAASGRTLYRYAMGWYRQAPGKEREFVAAISSSGGSTYYADSVKGSFTISRDNAKNTVYLQMNSLKPEDTAVYYCAARYGSSYAWSNYWGQGTQVTVSS | high polyreactivity
QVQLVESGGGLVQAGGSLRLRCAASGSIFGLYAMGWYRQAPGKERELVAAINQSGGSTTYADSVKGRCTISRDNAKTPVYLQMNSLKPEATAGYSCPADSVGDYGYQVYASWGYEDEYCGQGTQVTVSS | low polyreactivity
QVQLVESGGGLVQAGGSLRLRCAASGSIFKPYAMGWYRQAPGNERELVAAINRGGTSTYYADSVKGRFTISRDNAKNTVYFQMNSLKPEDTAVYYCAAPNRYSVPMYYWGQGTQVTVSS | low polyreactivity
QVQLVESGGGLVQAGGSLRLRCAASGSIFNSYAMGWYIQAPGKERELVAAISIRGTRTYYADSVKGRFTISRDNAKNTVYLQMNSLKPEDTAVYYCAADASYTEGMDYWGQGTQVTVLS | high polyreactivity
QVQLVESGGGLVQAGGSLRLRCAASGSIFRRYAMGRYRQAPGKERELVATITSTDSTNYADSVKGRFTISRDNAKNTVYLQMNSLKPEDTAVYYCAKRPYDYRLNSEYYYWGQGTQVTVSS | low polyreactivity

Sequence | polyreactivity (PSR sort gate)
QVQLVESGGGLVQAGGSLRLRCAASGSTFINNAMGWYRQAPGKERELVAAISGSGVSTYYADSVKGRFTISRDNAKNTVYLQMNSLKPEDTAVYYCNKRYRNYFWYKPYSTKYEYWGQGTQVTVSS | high polyreactivity
QVQLVESGGGLVQAGGSLRLRCAASGSTFPPNAMGWYRQAPGKERELVAVISNGGSNTRYADSVKGRFTISRDHAKNTVYLQMNSLKPEDTAVYYCAADYEYSGYGYWGQGTQVTVSS | high polyreactivity
QVQLVESGGGLVQAGGSLRLRCAASGSTFRQYAMGWYRQAPGKERELVAAISSGGRTNYADSVKGRFTISRDNAKNTVYLQMNSLKPEDTAVYYCAADIRRRVPVRGYYYWGQGTQVTVSS | high polyreactivity
QVQLVESGGGLVQAGGSLRLRCAASGSTYVYAIGWYRQAPGKDRELVASISWSDSSTYYADSVKGRFTISRDNAKNTVYLQMNSLKPEETAFYYCNADQGTRDSDYWGQGTQVTVSS | low polyreactivity
QVQLVESGGGLVQAGGSLRLRCAASGYTFPSNAKGWYRQAPGKERELVAPISSGGRTNYADSVKGRFTISRDNAKNTVYLLMKSLKPEDTAVYYSNADGGPGYPRAYDYWGQVTQVTVSS | low polyreactivity
QVQLVESGGGLVQAGGSLRLRCAASGYTLGPYAMGWYRQAPGKEREEVAALSWGGGRTYYADSVKGRFTISRDNAKNTVYLQMNSLKPEDTAVYYCGAKWSHVRDGPKYDYWGQGTQVTVSS | low polyreactivity
QVQLVESGGGLVQAGGSLRLRCAATGFIFSSYAMGWYRQAPGKERELVAAINRSGSTYYADSVKGRFTISRDNAKNTVYLQMNSLKPEDTADYYCNARRYYYRYRNYDYWGQGTQVTVSS | high polyreactivity
QVQLVESGGGLVQAGGSLRLRCAATGSIFTKYAMGWYRQAPGKERELVAAISWSGSRTRYADSVKGRFTISRDNAKNTVYLQMNSLKPEDTAVYYCAAEIAASYRPEYDYWGQGTQVTVSS | high polyreactivity
QVQLVESGGGLVQAGGSLRLRCADSGRNFVSNAMGWYRQAPGKERELVAAISKSGARTSYADSVKGRFTISRDNAKNTVYLQMNRLKPEDTAVYYCAAPVRWSGGGEYPNYYWGQGTQVTVSS | high polyreactivity
QVQLVESGGGLVQAGGSLRLRCADSGSTFYDNAMGWYRQATGKVRELVATISDSGGRTYYADSVKGRFTISRDNAKNTVYLQMNSLKPEDTAVYYCAADNYYITTVTDMYYWGQGTQVTVSS | low polyreactivity
QVQLVESGGGLVQAGGSLRLRCAPSGSIFSAYAMGWYRQAPGKVREVVAGISKSGARTYYADSVKGRFTLSRDNAKNTVYLQMNRLKPEDTAVYYCAAVDYYLYYYWGQGTQVTVSS | high polyreactivity
QVQLVESGGGLVQAGGSLRLRCGASGFIFEHYAMGWYRPAPAKERDFVAAISGSGGNKYYADSVKGRFTISRDNAKNTVYLQMNSLKPEDTAVYSCNKVDGTTLDDHYMDYWGQGTQVTVSS | low polyreactivity
QVQLVESGGGLVQAGGSLRLRGAAAGYNFLRYAIGWYRQAPGTERELVAAITNTGNTNYADSVKGRFTISRDNAKNTVYLQMNSLKPEDTAVYSCAAEYYWYSWKNRYKEYDYWGQGTQVTLSS | low polyreactivity
QVQLVESGGGLVQAGGSLRLRGAASGFTFLYYAMGWYRQAPGKERELVAAITWSGDSTYYADSEKGRFTISRDYAMNTVYLQMNSLKPEDTAVYYCATGGVTFGSVVRGVDGDYWGQGTQVTVSS | low polyreactivity
QVQLVESGGGLVQAGGSLRLRGAASGSTFYRYAMGWSRQAPGKERELVAAISWSAGRTYYADSVKGRFTISRYTAKNTVYLQMNSLKPEDTAVYYCAARGWYKSDYWGQGTQVTVSS | low polyreactivity
QVQLVESGGGLVQAGGSLRLSCAAAGRIFSYNAMGWYRQAPGKERELVAAISSGGSTYYADSVKGRFTISRDNAKNTFYLQMNSLKPEDTAVYYCAADRRYYSDMYYWGQGTQVTVSS | low polyreactivity
QVQLVESGGGLVQAGGSLRLSCAAAGRIFVQYDMGWYRQAAGKERELVAAIIDSGDITYYADSVKGRYTSSRDNAKNTVYLQMNSLKPEDTAVYDCAASAAYYGFYKSVTYDYWGQGTQVTVSS | low polyreactivity
QVQLVESGGGLVQAGGSLRLSCAAAGRTIRRIAMGWYRQAPGKERELVAAISKSGGRTYYADSVKGRFTISRDKAKKTVYLQMNSMKPEDTAVYYCGAYDTVYNSGDYDYWGQGTQVTVSS | high polyreactivity
QVQLVESGGGLVQAGGSLRLSCAAAGSTFSSYAMGWYRQAPGKERELVAAITSSGGSTYYADSVKGRFSISRDNAKNTVYIQKNSLKPEDTAVYYCAAADVIFWLYYYWGQGTQVTVSS | low polyreactivity
QVQLVESGGGLVQAGGSLRLSCAAARYAMGWYRPAPGKERELVAAISKSGGSTYYADSVKGRFTISRDNAKNTVYLQMNSLIPEDTAVYYCAARGHAGRGEYYYWGQGTQVTVSS | high polyreactivity
QVQLVESGGGLVQAGGSLRLSCAACGFIFRRYAMGWYRQAPGKERELVAAISSGGNTNYADSVKGRFTISRDNAKNTVYLQMNSLKPEDTAVYYCAVLGWYYYKYDYWGQGTQVNVSS | high polyreactivity
